Measured values reported in article PMC7721647, “The Human RNA Helicase DDX21 Presents a Dimerization Interface Necessary for Helicase Activity” (iScience, 2020).

Key:
DDX21ΔN = biological target: T1, DDX21ΔN (human, UniProt Q9NR30 186-783); test: fluorescence polarization; FP: 50 mM Tris pH 7.5, 50 mM KCl, 5 mM MgCl2, no ATP; Hill-slope fit; temperature not given in the material; conditions: protein: recombinant, chain copies: 2
T1 sequence: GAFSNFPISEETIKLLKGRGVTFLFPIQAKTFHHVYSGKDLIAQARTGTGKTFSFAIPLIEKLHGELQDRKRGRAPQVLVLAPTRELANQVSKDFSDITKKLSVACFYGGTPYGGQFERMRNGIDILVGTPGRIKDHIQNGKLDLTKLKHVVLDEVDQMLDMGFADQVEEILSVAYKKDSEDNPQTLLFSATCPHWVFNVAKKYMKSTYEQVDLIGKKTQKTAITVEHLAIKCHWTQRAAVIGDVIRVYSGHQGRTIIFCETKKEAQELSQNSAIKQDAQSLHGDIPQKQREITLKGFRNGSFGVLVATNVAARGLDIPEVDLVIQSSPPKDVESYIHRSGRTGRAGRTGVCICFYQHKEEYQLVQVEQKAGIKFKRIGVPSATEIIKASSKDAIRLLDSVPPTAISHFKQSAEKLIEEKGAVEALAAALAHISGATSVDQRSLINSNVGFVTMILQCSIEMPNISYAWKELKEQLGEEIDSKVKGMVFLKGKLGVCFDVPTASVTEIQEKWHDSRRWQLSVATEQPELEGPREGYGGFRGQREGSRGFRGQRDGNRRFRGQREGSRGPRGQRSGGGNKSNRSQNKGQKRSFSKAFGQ

DDX21Fl monomer = biological target: T2, DDX21Fl monomer (human, UniProt Q9NR30 1-783, L611R;A612R;A613R;A614R;L615R;A616R); test: as above; conditions: protein: recombinant
T2 sequence: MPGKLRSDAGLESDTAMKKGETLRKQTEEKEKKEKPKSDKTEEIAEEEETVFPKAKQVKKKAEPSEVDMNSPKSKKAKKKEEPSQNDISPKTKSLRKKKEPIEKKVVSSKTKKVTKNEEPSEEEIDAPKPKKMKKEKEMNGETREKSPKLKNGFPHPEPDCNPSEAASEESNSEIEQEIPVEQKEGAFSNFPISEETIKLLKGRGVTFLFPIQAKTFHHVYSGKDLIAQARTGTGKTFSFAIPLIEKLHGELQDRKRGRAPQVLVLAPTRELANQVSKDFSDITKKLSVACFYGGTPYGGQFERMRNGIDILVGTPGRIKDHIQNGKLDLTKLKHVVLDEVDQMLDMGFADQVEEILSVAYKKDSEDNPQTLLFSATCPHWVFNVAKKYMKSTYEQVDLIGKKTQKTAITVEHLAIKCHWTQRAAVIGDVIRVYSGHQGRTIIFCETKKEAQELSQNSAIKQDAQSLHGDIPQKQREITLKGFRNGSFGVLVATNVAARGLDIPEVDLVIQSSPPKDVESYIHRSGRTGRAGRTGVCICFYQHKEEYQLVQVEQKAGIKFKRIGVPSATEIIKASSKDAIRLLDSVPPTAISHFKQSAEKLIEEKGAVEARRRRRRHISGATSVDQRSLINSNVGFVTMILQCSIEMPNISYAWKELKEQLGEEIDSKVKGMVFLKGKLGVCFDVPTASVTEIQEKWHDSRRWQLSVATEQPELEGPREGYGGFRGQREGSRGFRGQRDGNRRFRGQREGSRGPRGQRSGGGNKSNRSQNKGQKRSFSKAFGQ

DDX21Fl = biological target: T3, DDX21Fl (human, UniProt Q9NR30 1-783); test: fluorescence polarization; no ATP; FP: 50 mM Tris pH 7.5, 50 mM KCl, 5 mM MgCl2, no ATP; Hill-slope fit; temperature not given in the material; conditions: protein: recombinant, tags: N-terminal Trx-His6, cut with thrombin, chain copies: 2
T3 sequence: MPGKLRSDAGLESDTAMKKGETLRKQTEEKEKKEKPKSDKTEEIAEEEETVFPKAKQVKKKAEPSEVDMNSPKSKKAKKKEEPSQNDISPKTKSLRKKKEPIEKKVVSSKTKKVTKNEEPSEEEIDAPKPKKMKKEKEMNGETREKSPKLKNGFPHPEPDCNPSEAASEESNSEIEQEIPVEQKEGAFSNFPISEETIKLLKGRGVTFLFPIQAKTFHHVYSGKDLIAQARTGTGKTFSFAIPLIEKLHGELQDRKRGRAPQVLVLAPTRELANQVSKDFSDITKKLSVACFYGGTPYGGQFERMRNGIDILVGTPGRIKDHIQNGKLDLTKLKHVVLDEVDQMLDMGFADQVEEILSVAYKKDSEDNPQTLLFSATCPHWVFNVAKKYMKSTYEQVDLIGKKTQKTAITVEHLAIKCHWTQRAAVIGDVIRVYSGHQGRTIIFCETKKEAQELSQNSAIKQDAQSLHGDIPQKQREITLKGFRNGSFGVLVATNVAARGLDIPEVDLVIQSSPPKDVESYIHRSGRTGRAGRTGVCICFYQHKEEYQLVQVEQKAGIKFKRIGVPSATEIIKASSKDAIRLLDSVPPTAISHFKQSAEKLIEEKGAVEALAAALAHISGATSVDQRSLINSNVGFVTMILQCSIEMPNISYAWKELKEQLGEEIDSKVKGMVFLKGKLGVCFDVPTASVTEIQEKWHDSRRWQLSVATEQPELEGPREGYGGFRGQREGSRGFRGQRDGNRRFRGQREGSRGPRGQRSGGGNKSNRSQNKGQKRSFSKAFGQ

[1] = label: 5'-FAM on 15-mer, 3' overhang 15 nt

Binder	Kd (DDX21ΔN; label: 5'-FAM, single strand)	Kd (DDX21Fl monomer; label: 5'-FAM, single strand)	Kd (DDX21Fl; label: 5'-FAM, single strand)	Kd (DDX21ΔN; [1])	Kd (DDX21Fl monomer; [1])	Kd (DDX21Fl; [1])
GUUUCGGAUCGACGC (ssRNA) [15-mer ssRNA]	40.3 ± 2.6 nM	29.9 ± 2.7 nM	30.7 ± 2.8 nM			
dsRNA 15/30mer 3' overhang (dsRNA) RNA 1: GUUUCGGAUCGACGC RNA 2: GCGUCGAUCCGAAACUAUACUUAAUUUUAA				15.5 ± 0.8 nM	13.9 ± 2.5 nM	10.2 ± 0.4 nM
